Assay results taken from patent US20240109974A1 (SHANDONG SIMCERE BIOPHARMACEUTICAL, published 2024).

T1: human TNFR2 (Novoprotein, Cat #C830) (human, UniProt P20333 23-257, limits assumed)
T1 construct: construct not described; also called human TNFR2 protein
T1 sequence (looked up): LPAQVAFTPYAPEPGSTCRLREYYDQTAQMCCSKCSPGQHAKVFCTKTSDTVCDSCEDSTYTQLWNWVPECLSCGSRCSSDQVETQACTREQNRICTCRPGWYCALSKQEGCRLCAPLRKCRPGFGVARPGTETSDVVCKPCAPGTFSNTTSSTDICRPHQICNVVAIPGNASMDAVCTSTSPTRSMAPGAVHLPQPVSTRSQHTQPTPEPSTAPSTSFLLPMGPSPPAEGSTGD

T2: Human TNFR2-His (Sino 10417-H08H) (human, UniProt P20333 23-257)
T2 construct: Bought protein; also called recombinant human TNFR2 protein; not shown: His tag
T2 sequence (looked up): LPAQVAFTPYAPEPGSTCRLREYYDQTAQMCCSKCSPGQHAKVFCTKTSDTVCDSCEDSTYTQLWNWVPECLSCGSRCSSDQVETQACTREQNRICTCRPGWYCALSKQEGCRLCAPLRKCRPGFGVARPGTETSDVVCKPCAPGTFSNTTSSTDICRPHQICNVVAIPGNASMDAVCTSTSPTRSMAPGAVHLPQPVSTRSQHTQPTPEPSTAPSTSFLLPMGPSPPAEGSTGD

T3: human TNFR2 on the surface of CHO-TNFR2 cells (human, UniProt P20333 23-461)
T3 construct: whole, on cells
T3 sequence (looked up): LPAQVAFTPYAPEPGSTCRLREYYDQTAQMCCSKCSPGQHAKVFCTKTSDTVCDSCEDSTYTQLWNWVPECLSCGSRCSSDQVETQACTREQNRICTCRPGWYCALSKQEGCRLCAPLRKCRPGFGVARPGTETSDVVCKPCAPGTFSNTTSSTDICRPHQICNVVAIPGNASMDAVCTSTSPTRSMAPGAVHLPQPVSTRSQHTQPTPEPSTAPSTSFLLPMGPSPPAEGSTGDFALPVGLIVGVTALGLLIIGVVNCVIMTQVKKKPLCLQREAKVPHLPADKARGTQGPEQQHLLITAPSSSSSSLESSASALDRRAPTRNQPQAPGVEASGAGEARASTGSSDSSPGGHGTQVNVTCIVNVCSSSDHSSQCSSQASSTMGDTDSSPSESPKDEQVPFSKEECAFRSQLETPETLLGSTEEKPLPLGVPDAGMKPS


Assays:
[1] = target: T1, human TNFR2 (Novoprotein, Cat #C830); assay: competition ELISA: antibody titrated against human TNFα-Biotin on coated human TNFR2 (Novoprotein), detection with Streptavidin-HRP [panel B]
Method: 1 μg/ml human TNFR2 (Novoprotein, Cat #C830) was pre-coated with 100 μl/well […] in an ELISA plate. All the test TNFR2 antibodies were subjected to 2.5-fold gradient dilution from the highest concentration of 30 μg/ml; the diluted antibodies were mixed with 15 ng/ml human TNFα-Biotin (Acro Biosystem, Cat #TNA-H82E3) in equal volume, respectively; the resulting mixture was added to the ELISA plate at 100 μl/well, and incubated with shaking at room temperature for 2.0 hours. The plate was washed, and then a Streptavidin-HRP working solution (diluted at 1:10000) was added at 100 μl/well, and the mixture was incubated with shaking at room temperature for 40 minutes. The plate was washed again, and then the substrate TMB of HRP was added to develop colour. A stop solution was added to stop the reaction, and then a microplate reader (MD 13) was used to read the absorbance value. The inhibitory curve of an antibody was drawn with antibody concentration as the abscissa and corresponding OD value as the ordinate, and fitted with four parameters (GraphPad Prism9) to calculate the IC50 value. The smaller the IC50 value, the stronger the ability of an antibody to inhibit the binding of human TNFα to human TNFR2. The blocking effect of a humanized antibody was normalized to its corresponding human-murine chimeric antibody WT. […]

[2] = target: T2, Human TNFR2-His (Sino 10417-H08H); assay: ELISA, plate coated with Human TNFR2-His, detection with anti-human IgG Fc-HRP [panel B]
Method: (§1) The test humanized antibody against TNFR2 (as described in Example 1, the antibody was comprised of variable regions linked to IgG-Fc; the WT chimeric antibody also adopted the IgG-Fc structure) was subjected to 3.33-fold gradient dilution, loaded with 100 μl/well, and incubated with shaking at room temperature for 1.5 hours. The plate was washed, and then a working solution of murine anti-human IgG Fc-HRP (diluted at 1:10000) was added, loaded with 100 μl/well, and incubated with shaking at room temperature for 1.0 hour. The plate was washed again, and then the substrate TMB of HRP was added to develop colour. A stop solution was added to stop the reaction, and then a microplate reader (MD 13) was used to read the absorbance value. The binding curve of an antibody was drawn with antibody concentration as the abscissa and corresponding OD value as the ordinate, and fitted with four parameters (GraphPad Prism9) to calculate the EC50 value. The smaller the EC50 value, the stronger the binding ability of an antibody to human/cynomolgus monkey TNFR2. The binding effect of a humanized antibody was normalized to its corresponding human-murine chimeric antibody WT (see SEQ ID NOs: 38-43 for the sequence). The higher the percentage value, the better the binding effect of the humanized antibody. […]

[3] = target: T3, human TNFR2 on the surface of CHO-TNFR2 …; assay: flow cytometry competition: antibody titrated on CHO-TNFR2 cells, then human TNFα-biotin, detection with PE-streptavidin [panel C]
Method: CHO stable cells highly expressing human TNFR2 were used for the experiment (the same as CHO-TNFR2 in Example 4). The CHO-TNFR2 cells were digested, washed twice with DPBS, then stained with Live/Dead (L/D) (20 minutes at room temperature), and plated at a density of 1×10⁵ cells/50 μl/well. A test anti-TNFR2 antibody was diluted to 6 μg/ml with a staining buffer as the starting concentration: the antibody was subjected to 3.33-fold gradient dilution, with a total of 7 concentration points. The diluted antibody was added to the plated cells at 50 μl/well, and the mixture was mixed well by gentle pipetting, and incubated at 4° C. for 30 minutes. Then the diluted 100 ng/ml of human TNFα-biotin was added at 100 μl/well, and the mixture was mixed well by gentle pipetting, and then incubated at 4° C. for 30 minutes. The mixture was washed twice with a staining buffer, and then 0.12 μg/ml PE-streptavidin (BioLegend, Cat #405204) was added at 100 μl/well; the resulting mixture was incubated at 4° C. for 30 minutes. The mixture was washed twice with a staining buffer, and then 150 μl of staining buffer was added to resuspend the cells; signals were detected by a flow cytometer (Thermo Attune NxT). […]

[4] = target: T2, Human TNFR2-His (Sino 10417-H08H); assay: ELISA, plate coated with Human TNFR2-His, detection with anti-human IgG Fc-HRP [panel C]
Method: as §1

IC50 (read off the curve) [1]	EC50 (read off the curve) [2]	IC50 (read off the curve) [3]	EC50 (read off the curve) [4]	Binder
~0.6 µg/mL	~0.02 µg/mL			219-WT (antibody, V domains shown, Human-murine chimeric wild-type molecule) VH: EVQLQESGAELVRPGASVKLSCKASGYSFTNYWMNWVKQRPGQGLEWIGMIHPSDTETRLNQNFKDKATLTVDKSSSTSYMQLSSPTSEDSAVYYCARGEGLGAARSVSMDYWGQGTTVTVSS VL: DILMTQSPSSLSASLGDRVTISCRASQDISNYLNWYQQKPDGTVKVLIYYTAILHSGVPSRFSGSGSGTDYSLTISNLEQEDIATYFCQQGNTLPWTFGGGTKLEIK
		~0.05 µg/mL	~0.01 µg/mL	224-WT (antibody, V domains shown, Human-murine chimeric wild-type molecule; also called human-murine chimeric antibody WT of #224) VH: EVQLQESGPEIVKPGASVKLSCTASGFNNKDIYMHWVKQRPEQGLEWIGRIDPATGNTKHDPKFQDKATLSSDTSSNTAYLQFSSLTSEDTAVYYCAHSPYGDFGAMDYWGQGTTVTVSS VL: DIQMTQSPAIMSASLGERVTMTCTASSSVSSNYLHWYQQKPGSSPKLWIYSTSNLPSGVPARFSGSGSGTSYSLTISSMEAEDAATYYCHQYHRSPWTFGGGTKLEIK
